Consider one molecule from publication PMC10725492 (Translational Psychiatry, 2023).

No end group written: not given here. *: point of attachment. Palmitoyl = CCCCCCCCCCCCCCCC(=O)*

In this assay the target is T1, recombinant APP N-terminal (18-612) fragment (UniProt P05067-4 18-612).
T1 construct: also called APP18-612; N-terminal APP; source: expressed by KMD Bioscience
The assay is described as follows: SPR. To be noted: both partners purified.

T1 sequence (P05067 other isoform, or with tags, fused parts or gaps): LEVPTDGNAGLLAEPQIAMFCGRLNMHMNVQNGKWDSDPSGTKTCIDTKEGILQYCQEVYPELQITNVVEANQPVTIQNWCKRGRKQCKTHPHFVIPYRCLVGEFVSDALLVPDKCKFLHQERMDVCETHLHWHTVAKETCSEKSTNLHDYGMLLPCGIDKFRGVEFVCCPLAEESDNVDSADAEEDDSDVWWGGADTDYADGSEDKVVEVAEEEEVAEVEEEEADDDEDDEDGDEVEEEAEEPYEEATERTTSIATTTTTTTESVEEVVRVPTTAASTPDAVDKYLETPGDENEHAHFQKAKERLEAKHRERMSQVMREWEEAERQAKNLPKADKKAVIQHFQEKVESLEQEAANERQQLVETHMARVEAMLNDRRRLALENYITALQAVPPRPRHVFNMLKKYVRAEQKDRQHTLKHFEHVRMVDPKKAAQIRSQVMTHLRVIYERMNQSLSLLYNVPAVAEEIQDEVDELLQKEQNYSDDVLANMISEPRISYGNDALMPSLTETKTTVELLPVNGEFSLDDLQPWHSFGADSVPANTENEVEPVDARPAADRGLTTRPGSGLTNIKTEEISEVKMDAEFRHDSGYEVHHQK

Take KKKKKKLKVRLASHLRK(Palmitoyl)ELRKRLLRDA (not fully specified) [AY51 peptide]: the Kd was 554 nM.
